Key:
[1] = molecular target: 1:1 mixture of PYL3 containing PYL3-Cy5.5 and PYL3-BHQ3 (Arabidopsis thaliana); test: Cy5.5 fluorescence of the PYL3-Cy5.5/PYL3-BHQ3 mixture (quenched in dimers), 1000 µM ABA
[2] = molecular target: 1:1 mixture of PYL3 containing PYL3-Cy5.5 and PYL3-BHQ3 (Arabidopsis thaliana); test: static light scattering of the PYL3-Cy5.5/PYL3-BHQ3 mixture, 100 µM ABA
[3] = molecular target: 1:1 mixture of PYL3 containing PYL3-Cy5.5 and PYL3-BHQ3 (Arabidopsis thaliana); test: static light scattering of the PYL3-Cy5.5/PYL3-BHQ3 mixture, 40 µM ABA
[4] = molecular target: 1:1 mixture of PYL3 containing PYL3-Cy5.5 and PYL3-BHQ3 (Arabidopsis thaliana); test: Cy5.5 fluorescence of the PYL3-Cy5.5/PYL3-BHQ3 mixture (quenched in dimers), 40 µM ABA
[5] = molecular target: 1:1 mixture of PYL3 containing PYL3-Cy5.5 and PYL3-BHQ3 (Arabidopsis thaliana); test: static light scattering of the PYL3-Cy5.5/PYL3-BHQ3 mixture, 0.1 µM ABA
[6] = molecular target: 1:1 mixture of PYL3 containing PYL3-Cy5.5 and PYL3-BHQ3 (Arabidopsis thaliana); test: static light scattering of the PYL3-Cy5.5/PYL3-BHQ3 mixture, 1000 µM ABA
[7] = molecular target: 1:1 mixture of PYL3 containing PYL3-Cy5.5 and PYL3-BHQ3 (Arabidopsis thaliana); test: calculated from static light scattering of the mixture, 100 µM ABA
[8] = molecular target: 1:1 mixture of PYL3 containing PYL3-Cy5.5 and PYL3-BHQ3 (Arabidopsis thaliana); test: calculated from static light scattering of the mixture, 1.0 µM ABA
[9] = molecular target: 1:1 mixture of PYL3 containing PYL3-Cy5.5 and PYL3-BHQ3 (Arabidopsis thaliana); test: Cy5.5 fluorescence of the PYL3-Cy5.5/PYL3-BHQ3 mixture (quenched in dimers), 0.1 µM ABA
[10] = molecular target: 1:1 mixture of PYL3 containing PYL3-Cy5.5 and PYL3-BHQ3 (Arabidopsis thaliana); test: static light scattering of the PYL3-Cy5.5/PYL3-BHQ3 mixture, 1.0 µM ABA
[11] = molecular target: 1:1 mixture of PYL3 containing PYL3-Cy5.5 and PYL3-BHQ3 (Arabidopsis thaliana); test: calculated from static light scattering of the mixture, 1000 µM ABA
[12] = molecular target: 1:1 mixture of PYL3 containing PYL3-Cy5.5 and PYL3-BHQ3 (Arabidopsis thaliana); test: calculated from static light scattering of the mixture, 0.1 µM ABA
[13] = molecular target: 1:1 mixture of PYL3 containing PYL3-Cy5.5 and PYL3-BHQ3 (Arabidopsis thaliana); test: Cy5.5 fluorescence of the PYL3-Cy5.5/PYL3-BHQ3 mixture (quenched in dimers), 1.0 µM ABA
[14] = molecular target: 1:1 mixture of PYL3 containing PYL3-Cy5.5 and PYL3-BHQ3 (Arabidopsis thaliana); test: calculated from static light scattering of the mixture, 40 µM ABA
[15] = molecular target: 1:1 mixture of PYL3 containing PYL3-Cy5.5 and PYL3-BHQ3 (Arabidopsis thaliana); test: Cy5.5 fluorescence of the PYL3-Cy5.5/PYL3-BHQ3 mixture (quenched in dimers), 100 µM ABA

**Q.** With “1:1 mixture of PYL3 containing PYL3-Cy5.5 and PYL3-BHQ3” as the substance, how does the Fluorescence (measured) [1] read?
**A.** 9490 cps

**Q.** And the Average molar mass (measured, amu) [2]?
**A.** 34000 amu

**Q.** And the Average molar mass (measured, amu) [3]?
**A.** 43300 amu

**Q.** And the Fluorescence (measured) [4]?
**A.** 5300 cps

**Q.** What about the Average molar mass (measured, amu) [5] of the same substance?
**A.** 51100 amu

**Q.** What about the Average molar mass (measured, amu) [6] of the same substance?
**A.** 31100 amu

**Q.** What about the PYLs in dimers (hetero- and homodimers, %) [7] of the same substance?
**A.** 32%

**Q.** What about the PYLs in monomers (%) [7] of the same substance?
**A.** 68%

**Q.** What about the PYLs in dimers (hetero- and homodimers, %) [8] of the same substance?
**A.** 84%

**Q.** And the PYLs in monomers (%) [8]?
**A.** 16%

**Q.** What about the Fluorescence (measured) [9] of the same substance?
**A.** 3960 cps

**Q.** What about the Average molar mass (measured, amu) [10] of the same substance?
**A.** 47400 amu

**Q.** And the PYLs in dimers (hetero- and homodimers, %) [11]?
**A.** 20%

**Q.** And the PYLs in monomers (%) [11]?
**A.** 80%

**Q.** And the PYLs in dimers (hetero- and homodimers, %) [12]?
**A.** 98%

**Q.** What about the PYLs in monomers (%) [12] of the same substance?
**A.** 2%

**Q.** And the Fluorescence (measured) [13]?
**A.** 4290 cps

**Q.** And the PYLs in dimers (hetero- and homodimers, %) [14]?
**A.** 68%

**Q.** What about the PYLs in monomers (%) [14] of the same substance?
**A.** 32%

**Q.** What about the Fluorescence (measured) [15] of the same substance?
**A.** 6710 cps

From patent publication US20220211037A1, “BIOSENSORS FOR DROUGHT STRESS IN PLANTS” (The Regents of the University of California, priority 2019, published 2022)
